Results reported in publication PMC8307404, “Crystal Structure-Guided Design of Bisubstrate Inhibitors and Photoluminescent Probes for Protein Kinases of the PIM Family” (Molecules, 2021).
Square brackets hold non-standard residues; d marks the D form. Peptide text beside a SMILES is read from it. * marks the point of attachment. X3 = O=C(CCCCCNCc1nc2c(sc3cc(Br)cnc32)c(=O)[nH]1)*

Columns and labels:
Assay in all cases: Kinase profiling (radiometric filter-binding)
Type in all cases: biochemical
ABL = ABL (Homo sapiens, UniProt P00519); conditions: 1 µM inhibitor, read-out: Residual activity, %
Method in brief: (§1)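 Percent activity retained relative to the no-inhibitor reaction is given. Assays used human enzymes, radiolabel filter capture, ATP concentrations not exceeding the respective KM, and a final inhibitor level of 1 µM.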

EIF2AK3 = molecular target: T1, EIF2AK3 (Homo sapiens, UniProt Q9NZJ5); conditions: EIF2AK3, 1 µM inhibitor; read-out: Residual activity, %
T1 sequence (Q9NZJ5 30-1116): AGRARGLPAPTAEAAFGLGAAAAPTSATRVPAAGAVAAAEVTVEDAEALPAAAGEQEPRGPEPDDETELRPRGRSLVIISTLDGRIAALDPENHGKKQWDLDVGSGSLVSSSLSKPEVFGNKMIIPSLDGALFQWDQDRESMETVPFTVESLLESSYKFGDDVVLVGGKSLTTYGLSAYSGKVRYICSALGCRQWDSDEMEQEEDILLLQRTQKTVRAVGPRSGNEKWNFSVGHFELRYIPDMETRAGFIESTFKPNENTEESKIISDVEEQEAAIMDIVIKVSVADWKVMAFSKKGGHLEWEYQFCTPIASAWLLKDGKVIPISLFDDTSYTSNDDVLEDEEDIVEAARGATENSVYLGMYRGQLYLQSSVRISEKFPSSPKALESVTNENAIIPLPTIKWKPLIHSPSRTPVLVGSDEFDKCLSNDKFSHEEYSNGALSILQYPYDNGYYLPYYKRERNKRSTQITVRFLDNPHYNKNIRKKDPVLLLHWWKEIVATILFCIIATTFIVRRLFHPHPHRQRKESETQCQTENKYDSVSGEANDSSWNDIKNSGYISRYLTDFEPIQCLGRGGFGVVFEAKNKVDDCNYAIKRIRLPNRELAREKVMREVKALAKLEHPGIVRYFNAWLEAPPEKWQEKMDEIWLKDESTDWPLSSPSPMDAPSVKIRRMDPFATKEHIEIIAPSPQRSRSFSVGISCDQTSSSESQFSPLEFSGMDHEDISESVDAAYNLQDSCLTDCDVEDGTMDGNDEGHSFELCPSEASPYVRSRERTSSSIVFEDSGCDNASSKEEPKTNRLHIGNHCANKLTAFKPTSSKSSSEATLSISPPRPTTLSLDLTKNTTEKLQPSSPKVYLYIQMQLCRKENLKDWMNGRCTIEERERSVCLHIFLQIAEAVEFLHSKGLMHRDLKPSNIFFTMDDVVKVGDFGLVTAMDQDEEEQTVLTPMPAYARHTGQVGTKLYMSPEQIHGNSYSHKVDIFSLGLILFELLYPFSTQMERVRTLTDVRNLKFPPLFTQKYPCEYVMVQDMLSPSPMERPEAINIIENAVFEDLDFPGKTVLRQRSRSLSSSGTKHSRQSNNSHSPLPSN
Method in brief: as §1

HER4 = HER4 (Homo sapiens, UniProt Q15303); conditions: HER4, 1 µM inhibitor; read-out: Residual activity, %
Method in brief: as §1

MAP4K3 = molecular target: T2, MAP4K3 (Homo sapiens, UniProt Q8IVH8); conditions: MAP4K3, 1 µM inhibitor; read-out: Residual activity, %
T2 sequence (Q8IVH8 1-894): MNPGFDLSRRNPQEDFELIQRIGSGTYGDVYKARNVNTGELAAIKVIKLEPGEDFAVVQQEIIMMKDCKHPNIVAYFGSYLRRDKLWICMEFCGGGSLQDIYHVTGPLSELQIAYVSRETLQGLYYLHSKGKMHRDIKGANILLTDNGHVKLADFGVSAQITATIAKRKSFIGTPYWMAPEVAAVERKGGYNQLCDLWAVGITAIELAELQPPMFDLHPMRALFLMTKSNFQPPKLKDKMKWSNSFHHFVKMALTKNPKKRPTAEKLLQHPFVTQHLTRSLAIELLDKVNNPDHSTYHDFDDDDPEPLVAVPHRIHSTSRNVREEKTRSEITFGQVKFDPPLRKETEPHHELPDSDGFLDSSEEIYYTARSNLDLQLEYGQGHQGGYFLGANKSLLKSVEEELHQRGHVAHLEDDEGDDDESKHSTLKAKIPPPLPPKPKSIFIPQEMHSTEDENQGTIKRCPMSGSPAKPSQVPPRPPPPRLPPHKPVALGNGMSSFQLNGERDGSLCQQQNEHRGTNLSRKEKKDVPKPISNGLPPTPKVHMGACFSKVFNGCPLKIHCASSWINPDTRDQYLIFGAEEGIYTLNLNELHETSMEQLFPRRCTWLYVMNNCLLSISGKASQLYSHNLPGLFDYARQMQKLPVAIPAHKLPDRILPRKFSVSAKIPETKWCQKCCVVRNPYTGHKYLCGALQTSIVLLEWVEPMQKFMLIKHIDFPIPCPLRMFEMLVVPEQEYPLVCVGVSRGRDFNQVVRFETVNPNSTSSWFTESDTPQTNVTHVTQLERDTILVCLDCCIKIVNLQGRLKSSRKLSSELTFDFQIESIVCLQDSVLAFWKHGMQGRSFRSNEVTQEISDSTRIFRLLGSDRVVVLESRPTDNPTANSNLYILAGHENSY
Method in brief: as §1

MKK1 = MKK1 (Homo sapiens, UniProt Q02750); conditions: MKK1, 1 µM inhibitor; read-out: Residual activity, %
Method in brief: as §1

Sequence of ABL (P00519 whole entry): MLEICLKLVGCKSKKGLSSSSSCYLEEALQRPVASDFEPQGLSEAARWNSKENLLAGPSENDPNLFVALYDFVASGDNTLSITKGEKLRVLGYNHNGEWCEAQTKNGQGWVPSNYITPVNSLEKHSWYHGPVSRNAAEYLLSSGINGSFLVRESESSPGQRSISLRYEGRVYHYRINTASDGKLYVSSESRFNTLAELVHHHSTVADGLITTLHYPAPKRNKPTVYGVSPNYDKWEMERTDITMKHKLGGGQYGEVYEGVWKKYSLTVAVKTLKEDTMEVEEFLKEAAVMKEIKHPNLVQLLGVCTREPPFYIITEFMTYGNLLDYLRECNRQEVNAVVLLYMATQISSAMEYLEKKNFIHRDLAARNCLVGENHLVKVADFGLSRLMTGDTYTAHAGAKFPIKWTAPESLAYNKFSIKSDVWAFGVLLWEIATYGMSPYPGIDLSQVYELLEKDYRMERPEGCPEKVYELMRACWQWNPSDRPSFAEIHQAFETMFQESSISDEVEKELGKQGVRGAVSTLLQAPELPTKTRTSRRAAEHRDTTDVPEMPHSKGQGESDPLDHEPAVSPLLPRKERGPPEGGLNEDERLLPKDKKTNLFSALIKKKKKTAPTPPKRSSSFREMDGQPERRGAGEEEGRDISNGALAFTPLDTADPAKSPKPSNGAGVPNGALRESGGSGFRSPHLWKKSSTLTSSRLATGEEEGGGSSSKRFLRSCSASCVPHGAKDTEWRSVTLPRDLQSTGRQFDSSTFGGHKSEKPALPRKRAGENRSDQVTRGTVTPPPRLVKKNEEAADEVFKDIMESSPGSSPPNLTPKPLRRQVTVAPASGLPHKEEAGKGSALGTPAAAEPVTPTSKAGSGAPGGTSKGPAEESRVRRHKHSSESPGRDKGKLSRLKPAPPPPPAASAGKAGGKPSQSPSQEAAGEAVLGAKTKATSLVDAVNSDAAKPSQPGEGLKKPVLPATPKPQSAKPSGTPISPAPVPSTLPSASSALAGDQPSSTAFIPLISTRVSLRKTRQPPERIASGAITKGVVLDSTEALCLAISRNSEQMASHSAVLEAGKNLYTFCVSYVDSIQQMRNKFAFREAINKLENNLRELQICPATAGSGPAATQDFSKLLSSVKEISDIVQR
Sequence of MKK1 (Q02750 whole entry): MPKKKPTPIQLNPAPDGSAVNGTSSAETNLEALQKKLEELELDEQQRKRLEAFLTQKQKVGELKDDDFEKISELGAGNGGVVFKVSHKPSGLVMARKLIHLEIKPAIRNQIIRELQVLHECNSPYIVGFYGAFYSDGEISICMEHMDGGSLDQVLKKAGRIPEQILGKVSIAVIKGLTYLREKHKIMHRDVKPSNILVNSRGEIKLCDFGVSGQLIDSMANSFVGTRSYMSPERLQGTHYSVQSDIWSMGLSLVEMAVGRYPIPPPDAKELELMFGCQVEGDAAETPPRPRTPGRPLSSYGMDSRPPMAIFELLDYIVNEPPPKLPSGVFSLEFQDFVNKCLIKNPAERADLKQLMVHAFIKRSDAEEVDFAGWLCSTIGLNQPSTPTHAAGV
Sequence of HER4 (Q15303 26-1308): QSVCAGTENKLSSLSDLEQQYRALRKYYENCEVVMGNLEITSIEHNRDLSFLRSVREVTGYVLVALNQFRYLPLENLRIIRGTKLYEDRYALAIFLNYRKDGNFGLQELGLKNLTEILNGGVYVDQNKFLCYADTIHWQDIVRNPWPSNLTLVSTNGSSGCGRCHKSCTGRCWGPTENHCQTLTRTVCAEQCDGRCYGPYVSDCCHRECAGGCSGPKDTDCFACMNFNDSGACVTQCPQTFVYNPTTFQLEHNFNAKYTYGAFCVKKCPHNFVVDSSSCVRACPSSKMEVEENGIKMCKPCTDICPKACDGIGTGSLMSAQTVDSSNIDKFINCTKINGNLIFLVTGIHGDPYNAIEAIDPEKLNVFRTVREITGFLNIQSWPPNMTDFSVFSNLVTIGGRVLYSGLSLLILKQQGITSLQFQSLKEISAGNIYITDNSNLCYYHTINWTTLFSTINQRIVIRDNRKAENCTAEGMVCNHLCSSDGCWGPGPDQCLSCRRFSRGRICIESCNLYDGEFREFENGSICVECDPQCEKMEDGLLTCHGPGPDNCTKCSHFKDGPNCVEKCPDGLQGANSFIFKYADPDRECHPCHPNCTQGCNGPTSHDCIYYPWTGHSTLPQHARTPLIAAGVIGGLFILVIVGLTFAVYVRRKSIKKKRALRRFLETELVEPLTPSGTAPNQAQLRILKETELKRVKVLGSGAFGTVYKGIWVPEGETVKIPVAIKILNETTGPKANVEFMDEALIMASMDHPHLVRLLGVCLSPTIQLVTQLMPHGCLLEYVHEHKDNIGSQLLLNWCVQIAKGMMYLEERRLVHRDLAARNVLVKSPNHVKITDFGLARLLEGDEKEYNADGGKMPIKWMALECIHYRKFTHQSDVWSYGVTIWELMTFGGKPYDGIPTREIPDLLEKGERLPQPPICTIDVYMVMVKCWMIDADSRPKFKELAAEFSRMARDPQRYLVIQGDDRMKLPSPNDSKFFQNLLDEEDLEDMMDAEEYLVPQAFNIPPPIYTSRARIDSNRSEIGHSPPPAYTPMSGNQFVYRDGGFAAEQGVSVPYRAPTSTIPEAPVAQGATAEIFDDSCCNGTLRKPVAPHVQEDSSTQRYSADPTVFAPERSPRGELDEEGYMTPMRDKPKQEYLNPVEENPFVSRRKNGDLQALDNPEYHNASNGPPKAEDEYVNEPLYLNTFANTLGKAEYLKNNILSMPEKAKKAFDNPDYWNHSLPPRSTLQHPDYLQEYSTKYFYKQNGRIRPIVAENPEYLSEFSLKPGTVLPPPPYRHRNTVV

Compound | remaining activity at 1 µM (ABL) [%] | remaining activity at 1 µM (EIF2AK3) [%] | remaining activity at 1 µM (HER4) [%] | remaining activity at 1 µM (MAP4K3) [%] | remaining activity at 1 µM (MKK1) [%]
N=C(N)NCCC[C@@H](NC(=O)CCCCCNC(=O)Cn1cnc2c(I)c(I)c(I)c(I)c21)C(=O)N[C@H](CCCNC(=N)N)C(=O)N[C@H](CCCNC(=N)N)C(=O)N[C@H](CCCNC(=N)N)C(=O)N[C@H](CCCNC(=N)N)C(=O)N[C@H](CCCNC(=N)N)C(=O)N[C@H](CCCCN)C(N)=O [ARC-3125, TIBI-CH2-C(=O)-Ahx-(D-Arg)6-D-Lys-NH2] | 106 | 11 ± 11 | 120 ± 9 | 17 ± 1 | 32 ± 27
N=C(N)NCCC[C@@H](NC(=O)CCCCCNCc1nc2c(sc3cc(Br)cnc32)c(=O)[nH]1)C(=O)N[C@H](CCCNC(=N)N)C(=O)N[C@H](CCCNC(=N)N)C(=O)N[C@H](CCCNC(=N)N)C(=O)N[C@H](CCCNC(=N)N)C(=O)N[C@H](CCCNC(=N)N)C(=O)N[C@H](CCCCN)C(N)=O [ARC-3126, BPTP-Ahx-(D-Arg)6-D-Lys-NH2] (X3-[dR][dR][dR][dR][dR][dR][dK]-NH2) | 116 ± 5 | 60 ± 6 | 110 ± 5 | 81 ± 7 | 100 ± 6
N=C(N)NCCC[C@@H](NC(=O)CNC(=O)[C@@H](CCCNC(=N)N)NC(=O)[C@@H](CCCNC(=N)N)NC(=O)CCCCCCCNCc1nc2c(sc3cc(Br)cnc32)c(=O)[nH]1)C(=O)N[C@H](CCCCN)C(N)=O [Compound 1, BPTP-Aoc-(D-Arg)2-Gly-D-Arg-D-Lys-NH2] | 94 ± 8 | 94 ± 7 | 111 ± 13 | 119 ± 1 | 93 ± 4
N=C(N)NCCC[C@@H](NC(=O)CNC(=O)[C@@H](CCCNC(=N)N)NC(=O)[C@@H](CCCNC(=N)N)NC(=O)CCCCCCCNCc1nc2c(sc3ccc(Br)cc32)c(=O)[nH]1)C(=O)N[C@H](CCCCN)C(N)=O [Compound 2, BBTP-Aoc-(D-Arg)2-Gly-D-Arg-D-Lys-NH2] | 89 ± 5 | 98 ± 5 | 114 ± 15 | 118 ± 3 | 94 ± 1
N=C(N)NCCC[C@@H](NC(=O)CNC(=O)[C@@H](CCCNC(=N)N)NC(=O)[C@@H](CCCNC(=N)N)NC(=O)Cn1cc(CNCc2nc3c(sc4ccc(Br)cc43)c(=O)[nH]2)nn1)C(=O)N[C@H](CCCCN)C(N)=O [Compound 3, BBTP-Amt-(D-Arg)2-Gly-D-Arg-D-Lys-NH2] | 91 ± 12 | 113 ± 13 | 105 ± 8 | 105 ± 2 | 92 ± 6
